# In patent publication US12006519B2, “Polymerase mutants and use with 3′-OH unblocked reversible terminators” (Agilent Technologies, Inc., priority 2021, dated 2024):
# Where a chain is given by its changes, count along the chain named. In names and notes the source's numbering stands. Entries after “also recorded” stand apart in the source; their conditions may differ.
# B1: TdT: commercially available preparation of calf thymus terminal deoxynucleotidyl transferase (Promega) (protein, UniProt P06526 1-509, looked up)
# DNA nucleotidylexotransferase: MDPLCTASSGPRKKRPRQVGASMASPPHDIKFQNLVLFILEKKMGTTRRNFLMELARRKGFRVENELSDSVTHIVAENNSGSEVLEWLQVQNIRASSQLELLDVSWLIESMGAGKPVEITGKHQLVVRTDYSATPNPGFQKTPPLAVKKISQYACQRKTTLNNYNHIFTDAFEILAENSEFKENEVSYVTFMRAASVLKSLPFTIISMKDTEGIPCLGDKVKCIIEEIIEDGESSEVKAVLNDERYQSFKLFTSVFGVGLKTSEKWFRMGFRSLSKIMSDKTLKFTKMQKAGFLYYEDLVSCVTRAEAEAVGVLVKEAVWAFLPDAFVTMTGGFRRGKKIGHDVDFLITSPGSAEDEEQLLPKVINLWEKKGLLLYYDLVESTFEKFKLPSRQVDTLDHFQKCFLILKLHHQRVDSSKSNQQEGKTWKAIRVDLVMCPYENRAFALLGWTGSRQFERDIRRYATHERKMMLDNHALYDKTKRVFLKAESEEEIFAHLGLDYIEPWERNA
# B2: Pfu1: Pfu DNA polymerase with D141A/E143A/A486L (protein, UniProt P61875 1-775, looked up, variant D141A E143A A486L)
# DNA polymerase: MILDVDYITEEGKPVIRLFKKENGKFKIEHDRTFRPYIYALLRDDSKIEEVKKITGERHGKIVRIVDVEKVEKKFLGKPITVWKLYLEHPQDVPTIREKVREHPAVVDIFEYDIPFAKRYLIDKGLIPMEGEEELKILAFAIATLYHEGEEFGKGPIIMISYADENEAKVITWKNIDLPYVEVVSSEREMIKRFLRIIREKDPDIIVTYNGDSFDFPYLAKRAEKLGIKLTIGRDGSEPKMQRIGDMTAVEVKGRIHFDLYHVITRTINLPTYTLEAVYEAIFGKPKEKVYADEIAKAWESGENLERVAKYSMEDAKATYELGKEFLPMEIQLSRLVGQPLWDVSRSSTGNLVEWFLLRKAYERNEVAPNKPSEEEYQRRLRESYTGGFVKEPEKGLWENIVYLDFRALYPSIIITHNVSPDTLNLEGCKNYDIAPQVGHKFCKDIPGFIPSLLGHLLEERQKIKTKMKETQDPIEKILLDYRQKLIKLLANSFYGYYGYAKARWYCKECAESVTAWGRKYIELVWKELEEKFGFKVLYIDTDGLYATIPGGESEEIKKKALEFVKYINSKLPGLLELEYEGFYKRGFFVTKKRYAVIDEEGKVITRGLEIVRRDWSEIAKETQARVLETILKHGDVEEAVRIVKEVIQKLANYEIPPEKLAIYEQITRPLHEYKAIGPHVAVAKKLAAKGVKIKPGMVIGYIVLRGDGPISNRAILAEEYDPKKHKYDAEYYIENQVLPAVLRILEGFGYRKEDLRYQKTRQVGLTSWLNIKKS
# B3: Pfu48: Pfu D141A/E143A/A486R/Y546H/K477W/L409Y, SEQ ID NO:5 (protein)
# chain: B2 DNA polymerase with L409Y, K477W, L486R, Y546H
# modifications: Mutant of Pyrococcus furiosus Polymerase
# What was measured:
# Format in all cases: biochemical
# LTA-2 = test: Template-independent incorporation of LTA-2, LTU-2, LTG-2, LTC-2 to priming strands
# Procedure: The template-independent DNA synthesis reactions employed 7.5 U TdT (Promega) or 180 nM (3×over primer) Pfu26 (D141A/E143A/A486L/Y546H/K477W/L409Y) or Pfu48 (D141A/E143A/A486R/Y546H/K477W/L409Y). Varying concentrations of dATP were added to 2 μM (TdT) or 60 nM (Pfu) T7 FOR primer (6′Fam […]) (SEQ ID NO:6) in duplicate reactions containing 1×TdT buffer with CoCl2(Promega) or 1×ThermoPol buffer (NEB). Reactions were incubated for 30 min. at 37° C. (TdT) or 60° C. (Pfu), and then inactivated with heat (TdT; 10 min. at 70° C.) or EDTA (1 ul 500 uM EDTA). Reaction products were exposed to UV using a Stratalinker (15-watt bulbs, […], 10 min). Reactions were diluted in water (TdT, 1:333; Pfu, 1:10) and 1 μl (TdT) or 0.5 μl (Pfu) aliquots were brought up to 10 μl with HiDI/LIZ 120 Size Standard. Products were heated at 95° C. for 5 min., cooled on ice for 2 min., and then analyzed on an ABI 3500 capillary electrophoresis system ([…] capillary, filter set #5, assay=GE5 LIZ120).
# In this example, primer extension was carried out with LTA-2 (FIG. 1F) as a Rp+Sp racemic mixture of α-thiotriphosphate, using the conditions described in Example 7.
# In further experiments, single-base extension reactions (10 ul) were performed with an equimolar mixture (3 uM each) of two single-stranded oligommcleotides:
# Both were labeled with Fam but distinguishable by their lengths using capillary electrophoresis. Primer extension reactions were performed using the following three Pfu mutants at a concentration of 18 nM polymerase: • Pfu10: Pfu polymerase with D141A/E143A/A486L/Y546H/K477W mutations (SEQ ID NO:2) • Pfu26: Pfu polymerase with D141A/E143A/A486L/Y546H/K477W/L409Y mutations (SEQ ID NO:4) • Pfu48: Pfu polymerase with D141A/E143A/A486R/Y546H/K477W/L409Y mutations (SEQ ID NO:5) The extension reactions also employed individual αS-modified LTs in Rp+Sp racemic mixture (namely, LTA-2, LTU-2, LTG-2, and LTC-2) at final concentrations of 5 uM. LTU-2, LTG-2, and LTC-2 are all C7 or C5-hydroxymethyl-a-tert-butyl-2-nitrobenzyl modified reversible terminators like LTA-2, with uracil, guanine, and cytosine in place of adenine. […] Reactions were incubated, stopped, UV-treated, and analyzed as described in Example 7.
# (§1) Primer extensions were carried out in duplicate 25 ul reactions containing 7.5 U calf thymus TdT, 1×Promega TdT buffer (with CoCl2), varying concentrations of LTA-1 (100 uM, 50 uM, 10 uM, 5 uM, or 1 uM), and either 2 uM (FIG. 11A to 11C) or 80 nM (FIG. 11D to 11F) of a priming strand (Fam-labeled T7 F primer (6Fam […]), SEQ ID NO:8). Controls were performed without the addition of a polymerase. Primer extensions were also carried out in reactions containing the Pfu26 mutant polymerase, 60 nM of the priming strand, and various concentrations (10 μM or 5 μM or 1 μM) of LTA-1 or LTA-2.
# LTA-1 = test: Template-independent incorporation of LTA-1 to a priming strand
# Procedure: This example tested the addition of a 3′-OH unblocked reversible terminator (LTA-1, shown in FIG. 1E, or LTA-2, shown in FIG. 1F) to the 3′ end of a single-stranded priming strand. The extension reaction was performed with 2 uM or 80 nM of a priming strand and varying concentrations (100/50/10/5/1 μM) of the reversible terminator. The performance of the Pfu26 polymerase was compared to TdT polymerase.
# as §1
# Reactions were incubated at 37° C. for 30 min., and then heat-killed for 10 min. at 70° C. Reaction products were split in half, and one-half was treated with UV as described in Example 7. Reactions were then diluted 1:333 (2 uM primer) or 1:13 (80 nM primer) in water, and 0.5 ul portions were analyzed by capillary electrophoresis using the conditions provided in Example 7.
# Lightning Terminators [1] = test: Plate-based assay, incorporation of Lightning Terminators by control extracts; details: control extracts, FIG. 6, FIGS. 7A-7B
# Procedure: In this example, additional mutant polymerases were derived from Pfu polymerase. To generate the mutants, eighty-seven codons in the Pfu pol B gene were saturated using the QuikChange Lightning Mutagenesis kit and oligonucleotides containing “NDT” codons to create R, N, D, C, G, H, I, L, F, S, Y, and V substitutions with equal frequency. In some cases, mutants missing from NDT libraries were prepared in a separate QuikChange reaction with an equimolar mixture of mutagenic oligos encoding the remaining mutations (A, T, K, Q, E, P, […], W). Thirty-two clones were randomly selected from each QuikChange library (with the exception of T267, Y403, Y410, I475, G499 and K675 libraries which generated fewer transformants). Bacterial lysates were prepared and screened for incorporation of LTA and LTC using a plate-based assay with immobilized primer-templates. A limited number of mutants were also screened for utilization of LTG and LTU (similar trends; data not shown). After washing and UV cleavage (to minimize dye quenching effects), plates were read and fluorescent signals compared to Pfu controls. The following table identifies four mutant Pfu polymerases that served as controls, which were given the arbitrary names Pfu5, Pfu1, and Pfu2, along with Pfu10 (which is discussed above).
# Selected lysates, based on screening results, were submitted for sequencing, and an amino acid identification was made based on the selections. […] As shown in Example 3, K477W benefits sequencing by increasing the fraction of full-length reads.
# Lightning Terminators [2] = test: Sequencing-by-synthesis with Lightning Terminators (87 cycles); parameters: ARL (87 cycles) / Lead + Lag / Leading / Lagging: unit not given here; details: alternative polymerases (D141A/E143A), same protein concentrations (0.02 ug/uL in cycle 1 and 0.002 ug/uL in cycles 2-n)
# Procedure: This section generally describes how the present mutant polymerases were used for sequencing-by-synthesis, and how their performance in sequencing was measured. Sequencing was performed on a breadboard instrument, essentially as described in Hertzog D, et al., “A high-performance, low-cost approach to next-generation sequencing”, BioOptics World. 2011 Issue November/December 2011.
# In this example, mutations were introduced into the DNA polymerase of SEQ ID NO: 12 (Therminator) in an attempt to improve its capability in sequencing with 3′-OH unblocked terminators. Such mutations to Thermococcus sp. 9° N DNA polymerase are disclosed in U.S. Pat. Nos. 9,273,352; 9,677,059; 9,765,309; U.S. Pat. App. Publication No. 20160032377. The following table summarizes sequencing metrics with Lightning Terminators.
# As used in this example and those that follow, “Lead+Lag” refers to dephasing errors in Sequencing by Synthesis technology caused by either reading the next base signal (Lead) or reading the previous base signal (Lag) relative to current base signals. Such errors may arise because of imperfect incoporation of reversible terminators by the polymerase.
# In this example, mutant polymerases were created by introducing certain mutations (D141A/E143A/A485L) which are present in Therminator. The three mutations were introduced at the equivalent positions in JDF3 (Thermococcus sp. JDF3) and Pfu (Pyrococcus furisosus) DNA polymerases. The new mutant polymerases were then evaluated for their performance in sequencing with Lightning Terminators, as described above.
molecule,measurement,setting,value
B1,Template-independent incorporation of LTA-2 (in words),LTA-2; single-stranded priming strand,did not incorporate the LTA-2 terminator as efficiently as dATP; also recorded: failed to incorporate LTA-2
same,Template-independent incorporation of LTA-1 (in words),LTA-1,incorporates LTA-1 much more efficiently than the more highly substituted LTA-2
same,Termination efficiency with LTA-1,LTA-1,poor
same,Bases incorporated in a single synthesis cycle,"LTA-1; LTA-1, 80 nM primer",> 3 bases
same,Bases incorporated in a single synthesis cycle,"LTA-1; LTA-1, 2 uM primer",3 bases
B2,Utilization of Lightning Terminators (in words),Lightning Terminators [1],could utilize Lightning Terminators
same,% reads >85,Lightning Terminators [2],9.9%
same,ARL (87 cycles),Lightning Terminators [2],54.9
same,Lead + Lag,Lightning Terminators [2],2.1
B3,"Template-independent incorporation of LTA-2, LTU-2, LTG-2 and LTC-2 (in words)","LTA-2; 18 nM polymerase, 5 uM terminators, CE2 and T7 oligonucleotides",superior to Calf thymus Terminal Transferase (TdT)
